Experimental data as given in article PMC10239968, “[^18F]AlF-NOTA-ADH-1: A new PET molecular radiotracer for imaging of N-cadherin-positive tumors” (Frontiers in Oncology, 2023).
Where two headings read alike, the source gives them in different places.

Tests used:
in vivo [1] = assay: in vivo; design: species or system BALB/c nu/nu mice; conditions: female, BALB/c nu/nu, mouse, in vivo, iv, 0.74 MBq (20 uCi) per mouse, total radioactivity
Procedure: (§1) All animal experiments were performed in accordance with and approved by the Institutional Animal Care and Use Committee guidelines of the First Affiliated Hospital of Zhejiang University School of Medicine. BALB/c nu/nu mice (female, 20 ± 3 g, 4- to 6-week-old; Department of Laboratory Animal Science, Zhejiang University) were used in this study. The SW480 and BxPC3 xenografts were generated, and 5×10^6 tumor cells were subcutaneously injected into the flanks of female athymic nude mice. The PDX-bearing mouse models were established as follows. Pancreatic cancer (diagnosed as pancreatic ductal adenocarcinoma) tissues were obtained from the surgery of a patient. Written informed consent was obtained from the patient, and the research protocol was approved by the Clinical Research Ethics Committee of the First Affiliated Hospital of Zhejiang University School of Medicine. The sample was sectioned into about 1mm^3 pieces, and the tumor tissues were subcutaneously implanted into BALB/c nu/nu mice flanks. Mice were allowed free access to sterile water and food and were kept under strict disease-free conditions with controlled temperature (~25°C), humidity (50-70%), and circadian rhythms (12-hour light/dark cycles). All necessary procedures were carried out to minimize discomfort and avoid the waste of animals. The length and width of the tumor were measured every other day. Biodistribution studies and positron emission tomography in mice were performed after the tumor volume reached 150 to 200 mm^3.
(§2) The BALB/c nude mice were randomized into different tumor models (SW480, BxPC3, and pancreatic PDX), including 5 mice per group. Each nude mouse was injected with 0.74MBq (20μCi) [^18F]AlF-NOTA-ADH-1 through the caudal vein. Blood was collected from the orbit, and the mice were dissected to collect the brain, heart, lung, liver, liver, spleen, stomach, intestine, muscle, bone and others at 30 min, […], 60min, 90min and 120min after injection. In the blocked group, the study was performed with a saturating dose of ADH-1 (20 mg/kg of mouse body weight) intravenously administered 60min before the intravenous injection of [^18F]AlF-NOTA-ADH-1 in the pancreatic PDX model and SW480 xenograft model. The mice in the tumor xenograft model were sacrificed 1h after [^18F]AlF-NOTA-ADH-1 injection. The nude mice were dissected, and tumor tissues and related tissues (blood, brain, heart, lung, liver, spleen, kidney, stomach, intestine, muscle and bone) were weighed, and their radioactivity was measured by γ-counter. The radioactivity results were recorded as % ID/g.

BxPC3 tumor xenografts = assay: in vivo; type: in vivo, BALB/c nu/nu mice; conditions: for T/Blood ratio / T/Muscle ratio / Tumor uptake: BxPC3 xenograft nude mice, n=5, mean±SD
Procedure: as §1, §2

in vivo [2] = type: in vivo, BALB/c nu/nu mice; conditions: female, BALB/c nu/nu, mouse, in vivo, iv, total radioactivity
Procedure: as §1, §2

SW480 tumor xenografts [3] = assay: Micro-PET imaging, SW480 tumor model; type: in vivo, nude mice; conditions: SW480 tumor-bearing nude mouse model, 60 min after injecting, non-blocked
Procedure: [^18F]AlF-NOTA-ADH-1 was evaluated by micro-PET imaging on nude mice bearing a PDX tumor, SW-480 and BxPC3 tumor xenografts. Each tumor-bearing nude mouse was injected with 3.7MBq [^18F]AlF-NOTA-ADH-1 via the tail vein. After being anesthetized with isoflurane, tumor-bearing nude mice were imaged using a micro-PET/CT scanner at 60 minutes post-injection under continuous isoflurane inhalation using a nasal mask with a connecting tube. Micro-PET/CT scanning was performed after low-dose 3D acquisition CT scanning at 10 minutes per bed. A blocking study was conducted, in which a saturating dose of unlabeled ADH-1 (20 mg/kg of mouse body weight) was intravenously administered 60 min before the intravenous injection of [^18F]AlF-NOTA-ADH-1.
The three-dimensional volume of interest (VOI) was used to assess the standard uptake value (SUV) of selected organs. The Seimens Inveon analysis software configured with micro-PET/CT was used to delineate the region of interest along the edge of the tumor and each normal tissue on the PET image. Subsequently, the SUV of each region of interest was measured, and the tumor/non-tumor ratio (T/NT) between the tumor and normal tissue was measured.

SW480 tumor xenografts [4] = type: in vivo, BALB/c nu/nu mice; conditions: SW480 xenograft nude mice, n=5, mean±SD
Procedure: as §1, §2

[5] = 0.74 MBq (20 uCi) per mouse, Kidney uptake
[6] = blocking (ADH-1 20 mg/kg i.v. 60min before), 60min p.i.

## CC(=O)N[C@H]1CSSC[C@@H](C(=O)NCCNC(=O)CN2CCN(CC(=O)O)CCN(CC(=O)O)CC2)NC(=O)[C@H](C(C)C)NC(=O)[C@H](C)NC(=O)[C@H](Cc2c[nH]cn2)NC1=O [[^18F]AlF-NOTA-ADH-1]
In vivo [1]; Blood uptake
  tissue uptake at 0.5 h: 0.69 ± 0.22 %ID/g
  tissue uptake at 1 h: 0.4 ± 0.18 %ID/g
  tissue uptake at 1.5 h: 0.39 ± 0.11 %ID/g
  tissue uptake at 2 h: 0.41 ± 0.07 %ID/g
In vivo [1]; Bone uptake
  tissue uptake at 0.5 h: 1.74 ± 0.81 %ID/g
  tissue uptake at 1 h: 2.29 ± 0.96 %ID/g
  tissue uptake at 1.5 h: 1.65 ± 1.3 %ID/g
  tissue uptake at 2 h: 0.74 ± 0.35 %ID/g
In vivo [1]; Brain uptake
  tissue uptake at 0.5 h: 0.62 ± 0.14 %ID/g
  tissue uptake at 1 h: 0.99 ± 0.47 %ID/g
  tissue uptake at 1.5 h: 0.63 ± 0.18 %ID/g
  tissue uptake at 2 h: 0.51 ± 0.27 %ID/g
In vivo [1]; Heart uptake
  tissue uptake at 0.5 h: 2.54 ± 0.97 %ID/g
  tissue uptake at 1 h: 0.96 ± 0.17 %ID/g
  tissue uptake at 1.5 h: 0.95 ± 0.25 %ID/g
  tissue uptake at 2 h: 0.81 ± 0.28 %ID/g
In vivo [1]; Intestines uptake
  tissue uptake at 0.5 h: 3.82 ± 0.12 %ID/g
  tissue uptake at 1 h: 2.14 ± 0.04 %ID/g
  tissue uptake at 1.5 h: 3.93 ± 2.67 %ID/g
  tissue uptake at 2 h: 2.53 ± 2 %ID/g
In vivo [1]; Muscle uptake
  tissue uptake at 1 h: 1.56 ± 0.07 %ID/g
  tissue uptake at 1.5 h: 2.03 ± 0.05 %ID/g
  tissue uptake at 2 h: 1.18 ± 0.6 %ID/g
In vivo [1]; Skin uptake
  tissue uptake at 0.5 h: 0.11 ± 0.04 %ID/g
  tissue uptake at 1 h: 0.95 ± 0.46 %ID/g
  tissue uptake at 1.5 h: 1.51 ± 0.02 %ID/g
  tissue uptake at 2 h: 1.56 ± 0.66 %ID/g
In vivo [1]; Stomach uptake
  tissue uptake at 0.5 h: 3.23 ± 1.69 %ID/g
  tissue uptake at 1 h: 3.4 ± 0.12 %ID/g
  tissue uptake at 1.5 h: 6.16 ± 1.58 %ID/g
  tissue uptake at 2 h: 1.6 ± 1.04 %ID/g
BxPC3 tumor xenografts; BxPC3 tumor model
  Tumor tissue uptake: no significant uptake
BxPC3 tumor xenografts; 30min p.i.
  T/Blood ratio: 3.18± 0.08
  T/Muscle ratio: 0.86±0.21
  Tumor uptake: 0.89±0.12 %ID/g
BxPC3 tumor xenografts; 60min p.i.
  T/Blood ratio: 4.22±0.23
  T/Muscle ratio: 0.96±0.32
  Tumor uptake: 1.07±0.36 %ID/g
BxPC3 tumor xenografts; 90min p.i.
  T/Blood ratio: 5.45±0.10
  T/Muscle ratio: 0.66±0.19
  Tumor uptake: 0.60±0.12 %ID/g
BxPC3 tumor xenografts; 120min p.i.
  T/Blood ratio: 1.42±0.13
  T/Muscle ratio: 0.63±0.23
  Tumor uptake: 0.37±0.07 %ID/g
In vivo [2]; [5]
  tissue uptake at 1 h: 10.2 ± 0.47 %ID/g
  tissue uptake at 1.5 h: 9.39 ± 0.75 %ID/g
  tissue uptake at 2 h: 6.61 ± 0.87 %ID/g
In vivo [2]; 0.74 MBq, Muscle uptake
  tissue uptake at 0.5 h: 1.03 ± 0.4 %ID/g
In vivo [2]; 0.74 MBq, Pancreas uptake
  tissue uptake at 0.5 h: 0.23 ± 0.08 %ID/g
  tissue uptake at 1 h: 0.61 ± 0.09 %ID/g
  tissue uptake at 1.5 h: 0.49 ± 0.23 %ID/g
  tissue uptake at 2 h: 0.65 ± 0.11 %ID/g
SW480 tumor xenografts [3]
  Micro-PET T/Bone: 1.903±0.273
  Micro-PET T/Lung: 3.359±2.998
  Micro-PET tumor/muscle ratio: 1.443±0.121
SW480 tumor xenografts [4]; [6]
  T/Blood ratio: 3.96±0.33
  T/Muscle ratio: 1.03±0.56
  Tumor uptake: 1.07±0.57 %ID/g
SW480 tumor xenografts [4]; non-blocking, 30min p.i.
  T/Blood ratio: 5.77±0.13
  T/Muscle ratio: 1.75±0.47
  Tumor uptake: 1.73±0.11 %ID/g
SW480 tumor xenografts [4]; non-blocking, 60min p.i.
  T/Blood ratio: 7.42±1.01
  T/Muscle ratio: 1.91±0.69
  Tumor uptake: 2.08±1.64 %ID/g
SW480 tumor xenografts [4]; non-blocking, 90min p.i.
  T/Blood ratio: 9.6±0.76
  T/Muscle ratio: 1.23±0.92
  Tumor uptake: 0.96±0.15 %ID/g
SW480 tumor xenografts [4]; non-blocking, 120min p.i.
  T/Blood ratio: 6.08±0.35
  T/Muscle ratio: 0.86±0.23
  Tumor uptake: 0.73±0.67 %ID/g
